Source: US20200247894A1 (Regeneron, published 2020)

T1: Human IL2Rγ extracellular domain expressed with a C-terminal myc-myc-hexahistidine tag (human)
T1 construct: also called hIL-2Rg-MMH; hIL-2RG-MMH
T1 chain: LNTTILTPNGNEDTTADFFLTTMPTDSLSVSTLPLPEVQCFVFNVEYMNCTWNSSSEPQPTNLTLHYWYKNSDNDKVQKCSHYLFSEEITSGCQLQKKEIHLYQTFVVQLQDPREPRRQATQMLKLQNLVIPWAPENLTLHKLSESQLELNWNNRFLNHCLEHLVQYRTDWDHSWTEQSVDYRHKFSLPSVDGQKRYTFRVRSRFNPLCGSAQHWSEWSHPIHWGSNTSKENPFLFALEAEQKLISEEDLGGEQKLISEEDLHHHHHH

T2: Macaca fascicularis IL2Rγ extracellular domain expressed with a C-terminal myc-myc-hexahistidine tag (Macaca fascicularis)
T2 construct: also called mfIL-2Rg-MMH; mfIL-2RG-MMH
T2 chain: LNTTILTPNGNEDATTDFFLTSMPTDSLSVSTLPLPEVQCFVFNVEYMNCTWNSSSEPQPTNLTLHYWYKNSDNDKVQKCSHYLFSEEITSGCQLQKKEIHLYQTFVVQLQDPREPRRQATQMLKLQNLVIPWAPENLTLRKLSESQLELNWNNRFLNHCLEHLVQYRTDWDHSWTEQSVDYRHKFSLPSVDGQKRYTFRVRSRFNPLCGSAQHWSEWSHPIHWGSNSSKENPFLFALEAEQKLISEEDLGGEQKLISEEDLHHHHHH

B1: H4H12884P (antibody, human IgG4 S228P, kappa, V domains shown)
VH: QVQLQESGPGLVKPSQTLSLTCTVSGGSISSGGYYWSWIRQHPGKGLEWIGFIYYSGKTYYNPSLKSRLTISVDTSKSQFSLKLRSVTAADTAVYYCARLGYTNSAGWFDPWGQGTLVTVSS
VL: DIQMTQSPSSLSASVGDRVTITCRASQSISSYLNWYQQKPGKAPNLLIYAASSLQSGVPSRFSGSGSGTDFTLTISSLQPEDLATYYCQQSYTTPFTFGPGTKVDIKR
notes: anti-IL2Rgamma mAb expressed with human IgG4 Fc
B2: H4H12886P (antibody, human IgG4 S228P, kappa, V domains shown)
VH: EVQLVESGGGLVKPGGSLRLSCAASGFTFSTAWMSWVRQSPGRGLEWVGRMKSKTDGGTTFYAAPVKGRFTISRDDSKNTLYLQMNSLKTEDTAVYYCTTGLVPAFYKYYGVDVWGQGTTVTVSS
VL: DIQMTQSPSSLSASVGDRITITCQASQDITNYLNWYQQKPGKAPNLLIYDASNLVTGVPSRFSGSGSGTDFTFTILSLQPEDIATYYCQQYDSLLTFGPGTKVDIKR
notes: as for B1
B3: H4H12889P (antibody, human IgG4 S228P, kappa, V domains shown)
VH: EVQLVESGGGLVQPGGSLRLSCAASGFIFSSYEMHWVRQAPGKGLEWISYISSSGTTIYYADSVKGRFTISRDNAKNSLYLHMNSLRAEDTAVYYCTRARITGTFDVFDIWGQGTMVTVSS
VL: DIQMTQSPSSLSASVGDRVTITCRASQSISSYLNWYQQKPGKAPKLLIFAASNLQSGVPSRFSGSRSGTDFTLTISSLQPEDFATYYCQQNYNIPYTFGQGTKLEIKR
notes: anti-IL2Rgamma mAb expressed with human IgG4 Fc; also called REGN7257
B4: H4H12890P (antibody, human IgG4 S228P, kappa, V domains shown)
VH: EVQLVESGGGLVQPGGSLRLSCAASGFTFNNYAMHWVRQAPGKGLEYVSSISSSGGSTYYEDSVKGRFTISRDNSKNTLYLQMGSLRAEDMAVYYCARSFYGSGTYYDTFDMWGQGTMVTVSS
VL: DIQMTQSPSSLSASIGDRVTITCRASQSISRYLNWYQQKPGKAPKLLIYAASSLQSGVPSRFSASGSGTDFTLTISSLQPEDFATYYCQQSYSTPFTFGQGTKLEIKR
notes: as for B1
B5: H4H12899P (antibody, human IgG4 S228P, kappa, V domains shown)
VH: QVQLVESGGDLVKPGGSLRLSCATSGFTFSDFYMTWIRQAPGKGLEWISYISNSGSIVKYADSVKGRFTISRDNAKNSLYLQMNSLRAEDTAIYYCARFYGDRWGQGTLVTVSS
VL: DIQLTQSPSFLSASVGDRVTITCWASQGISTFLAWYQQKPGKAPKLLIYAASTLQSGVPSRFSGSGSGTDFTLTISSLQPEDFATYHCQQLNNYPWTFGQGTKVEIKR
notes: as for B1
B6: H4H12900P (antibody, human IgG4 S228P, kappa, V domains shown)
VH: QVQLVESGGGLVKPGGSLRLSCEASGFTFNDFYMTWIRQAPGKGLEWIAYISKSGDKMRYADSVKGRFSTSRDNAKNSLSLQMNSLRAEDTAVYYCARFYGDIWGQGTLVTVSS
VL: DIQLTQSPSFLSASVGDRVTITCWASQDISSFLVWYQQKPGKAPNLLIYAASALQSGVPSRFSGSGSGTEFTLTISSLQPEDFASYYCEQLNNYPWTFGQGTKVEIKR
notes: as for B1
B7: H4H13541P (antibody, human IgG4 S228P, kappa, V domains shown)
VH: EVQLVESGGGVVRPGGSLRLSCAASGFIFDDYDMSWVRQPPGRGLEWVSGIDWFGGTRGYADSMKGRFTISRDNAKNSLYLQMNSLRVEDTAFYYCARGGAIVGAVTPFDYWGQGTLVTVSS
VL: DIQMTQSPSSLSASVGNRVTLSCRASQSINTYLSWYQQRPGKAPKLLIYAASSLQSGVPSRFSGSGAGTDFTLTISSLQPEDFATYYCQQSYSAPLTFGGGTKVEIKR
notes: as for B1
B8: H4H12908P (antibody, human IgG4 S228P, kappa, V domains shown)
VH: EVQLVESGGRLVQPGGSLRLSCEASGFTFSNYGMTWVRQAPGKGLEWVSVISGSDNRKYYAESVKGRFTISRDNSKNTLYLQMNSLRAEDTAVYYCAKLGYSRSSKDFYYGMDVWGQGTTVTVSS
VL: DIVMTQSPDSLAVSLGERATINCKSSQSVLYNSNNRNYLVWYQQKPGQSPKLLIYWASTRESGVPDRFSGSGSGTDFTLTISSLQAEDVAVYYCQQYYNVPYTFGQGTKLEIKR
notes: as for B1
B9: H4H13544P2 (antibody, human IgG4 S228P, kappa, V domains shown)
VH: QLQLQESGPGLVKPSETLSLTCTVSGGSISIKNYYWGWIRQPPGKGLEWIGSIYYSGTTYYNPSLKSRVTISVDTSKNQFSLKLSSVTAADTAVYHCARHGYSYGHGWFDPWGQGTLVTVSS
VL: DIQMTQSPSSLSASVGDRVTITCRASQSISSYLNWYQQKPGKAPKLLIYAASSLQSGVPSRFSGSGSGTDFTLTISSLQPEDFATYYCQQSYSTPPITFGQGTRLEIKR
notes: as for B1

What was measured:
[1] = biological target: T1, Human IL2Rγ extracellular domain …; experiment: SPR, captured mAb, 37C, dissociation pH 6.0
Experimental: (§1) The dissociation rate constant (kd) for binding of IL-2Rγ reagents to purified anti-IL2Rγ monoclonal antibodies was determined using a real-time surface plasmon resonance based Biacore 4000 biosensor platform. […] The CM5 Biacore sensor surface derivatized by amine coupling with monoclonal mouse anti-human Fc antibody (GE, Catalog # BR-1008-39) was used to capture anti-IL2Rγ monoclonal antibodies expressed with human IgG4 Fc. All the IL2Rγ reagents were expressed with a C-terminal myc-myc-hexahistidine tag (subsequently referred to with a -MMH suffix). […] The dissociation of bound IL-2Rg-MMH was performed in PBS-T-pH7.4 or PBS-T-pH6.0 running buffers for 6 minutes.
(§2) Dissociation rate constants (kd) in two running buffers were determined by fitting the real-time binding sensorgrams to a 1:1 binding model using Scrubber 2.0c curve-fitting software. Values of dissociation rate for […] mAb binding to hIL-2RG-MMH and mfIL-2RG-MMH at 25° C. and 37° C. in PBS-T-pH7.4 and PBS-T-pH6.0 is shown in Table 2-1 through Table 2-8.

[2] = biological target: T1, Human IL2Rγ extracellular domain …; experiment: SPR, captured mAb, 25C, dissociation pH 6.0
Experimental: as §1, §2

[3] = biological target: T2, Macaca fascicularis IL2Rγ extracellular …; experiment: SPR, captured mAb, 25C, dissociation pH 6.0
Experimental: as §1, §2

[4] = biological target: T1, Human IL2Rγ extracellular domain …; experiment: SPR, captured mAb, 37C, dissociation pH 7.4
Experimental: as §1, §2

[5] = biological target: T1, Human IL2Rγ extracellular domain …; experiment: SPR, captured mAb, 25C, dissociation pH 7.4
Experimental: as §1, §2

[6] = biological target: T2, Macaca fascicularis IL2Rγ extracellular …; experiment: SPR, captured mAb, 25C, dissociation pH 7.4
Experimental: as §1, §2

| Binder | 100 nM Ag Bound (RU) [1] [RU] | koff [1] [s⁻¹] | t1/2 [1] [min] | 100 nM Ag Bound (RU) [2] [RU] | koff [2] [s⁻¹] | t1/2 [2] [min] | 100 nM Ag Bound (RU) [3] [RU] | koff [3] [s⁻¹] | t1/2 [3] [min] | 100 nM Ag Bound (RU) [4] [RU] | koff [4] [s⁻¹] | t1/2 [4] [min] | 100 nM Ag Bound (RU) [5] [RU] | koff [5] [s⁻¹] | t1/2 [5] [min] | 100 nM Ag Bound (RU) [6] [RU] | koff [6] [s⁻¹] | t1/2 [6] [min] |
| --- | --- | --- | --- | --- | --- | --- | --- | --- | --- | --- | --- | --- | --- | --- | --- | --- | --- | --- |
| B1 | 136 | 0.00379 | 3 | 135 | 0.00199 | 6 | 133 | 0.00159 | 7 | 171 | 0.00151 | 8 | 161 | 0.00064 | 18 | 160 | 0.000516 | 22 |
| B2 | 115 | 0.00216 | 5 | 84 | 0.000634 | 18 | 83 | 0.000682 | 17 | 146 | 0.000519 | 22 | 113 | 0.000155 | 75 | 113 | 0.000175 | 66 |
| B3 | 153 | 0.00188 | 6 | 130 | 0.000437 | 26 | 126 | 0.000434 | 27 | 147 | 0.000636 | 18 | 118 | 0.000138 | 84 | 123 | 0.000157 | 74 |
| B4 | 82 | 0.00286 | 4 | 64 | 0.000636 | 18 | 60 | 0.000668 | 17 | 90 | 0.000661 | 17 | 72 | 0.000192 | 60 | 71 | 0.000203 | 57 |
| B5 | 125 | 0.00219 | 5 | 96 | 0.000568 | 20 | 95 | 0.000703 | 16 | 158 | 0.000668 | 17 | 118 | 0.000174 | 66 | 117 | 0.000167 | 69 |
| B6 | 133 | 0.00271 | 4 | 101 | 0.000692 | 17 | 100 | 0.000671 | 17 | 162 | 0.000711 | 16 | 130 | 0.000175 | 66 | 129 | 0.000175 | 66 |
| B7 | 95 | 0.00158 | 7 | 66 | 0.000469 | 25 | 69 | 0.000497 | 23 | 98 | 0.000532 | 22 | 72 | 0.000165 | 70 | 80 | 0.000222 | 52 |
| B8 | 52 | 0.00163 | 7 | 34 | 0.000505 | 23 | 34 | 0.000488 | 24 | 54 | 0.000671 | 17 | 31 | 0.000177 | 65 | 37 | 0.000208 | 56 |
| B9 | 39 | 0.00827 | 1.4 | 45 | 0.00175 | 7 | 52 | 0.0017 | 7 | 54 | 0.0041 | 2.8 | 57 | 0.000602 | 19 | 67 | 0.000584 | 20 |
